# Data from IntAct's records for PubMed 19684601.
# B1: Myocyte-specific enhancer factor 2A (Homo sapiens), Q02078-1 (parent)
# chain: MGRKKIQITRIMDERNRQVTFTKRKFGLMKKAYELSVLCDCEIALIIFNSSNKLFQYASTDMDKVLLKYTEYNEPHESRTNSDIVEALNKKEHRGCDSPDPDTSYVLTPHTEEKYKKINEEFDNMMRNHKIAPGLPPQNFSMSVTVPVTSPNALSYTNPGSSLVSPSLAASSTLTDSSMLSPPQTTLHRNVSPGAPQRPPSTGNAGGMLSTTDLTVPNGAGSSPVGNGFVNSRASPNLIGATGANSLGKVMPTKSPPPPGGGNLGMNSRKPDLRVVIPPSSKGMMPPLSEEEELELNTQRISSSQATQPLATPVVSVTTPSLPPQGLVYSAMPTAYNTDYSLTSADLSALQGFNSPGMLSLGQVSAWQQHHLGQAALSSLVAGGQLSQGSNLSINTNQNISIKSEPISPPRDRMTPSGFQQQQQQQQQQQPPPPPQPQPQPPQPQPRQEMGRSPVDSLSSSSSSYDGSDREDPRGDFHSPIVLGRPPNTEDRESPSVKRMRMDAWVT
# Variants of: B1
# Details: with sumo2_human SUMO2, P61956
# sumo2_human SUMO2, P61956, sequence (P61956 whole entry): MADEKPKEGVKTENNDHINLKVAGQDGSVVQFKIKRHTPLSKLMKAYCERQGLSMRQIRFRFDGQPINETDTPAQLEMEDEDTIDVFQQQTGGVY
row,Variant,effect of a mutation on the interaction
1,MGRKKIQITRIMDERNRQVTFTKRKFGLMKKAYELSVLCDCEIALIIFNSSNKLFQYASTDMDKVLLKYTEYNEPHESRTNSDIVEALNKKEHRGCDSPDPDTSYVLTPHTEEKYKKINEEFDNMMRNHKIAPGLPPQNFSMSVTVPVTSPNALSYTNPGSSLVSPSLAASSTLTDSSMLSPPQTTLHRNVSPGAPQRPPSTGNAGGMLSTTDLTVPNGAGSSPVGNGFVNSRASPNLIGATGANSLGKVMPTKSPPPPGGGNLGMNSRKPDLRVVIPPSSKGMMPPLSEEEELELNTQRISSSQATQPLATPVVSVTTPSLPPQGLVYSAMPTAYNTDYSLTSADLSALQGFNSPGMLSLGQVSAWQQHHLGQAALSSLVAGGQLSQGSNLSINTNQNISIRSEPISPPRDRMTPSGFQQQQQQQQQQQPPPPPQPQPQPPQPQPRQEMGRSPVDSLSSSSSSYDGSDREDPRGDFHSPIVLGRPPNTEDRESPSVKRMRMDAWVT [K403R],disrupting interaction
2,MGRKKIQITRIMDERNRQVTFTKRKFGLMKKAYELSVLCDCEIALIIFNSSNKLFQYASTDMDKVLLKYTEYNEPHESRTNSDIVEALNKKEHRGCDSPDPDTSYVLTPHTEEKYKKINEEFDNMMRNHKIAPGLPPQNFSMSVTVPVTSPNALSYTNPGSSLVSPSLAASSTLTDSSMLSPPQTTLHRNVSPGAPQRPPSTGNAGGMLSTTDLTVPNGAGSSPVGNGFVNSRASPNLIGATGANSLGKVMPTKSPPPPGGGNLGMNSRKPDLRVVIPPSSKGMMPPLSEEEELELNTQRISSSQATQPLATPVVSVTTPSLPPQGLVYSAMPTAYNTDYSLTSADLSALQGFNSPGMLSLGQVSAWQQHHLGQAALSSLVAGGQLSQGSNLSINTNQNISIKSEPIAPPRDRMTPSGFQQQQQQQQQQQPPPPPQPQPQPPQPQPRQEMGRSPVDSLSSSSSSYDGSDREDPRGDFHSPIVLGRPPNTEDRESPSVKRMRMDAWVT [S408A],disrupting interaction
